Laboratory results published in paper PMC10397247.
Values belong to the binder of their own block, whether it stands above or below them.

Key:
Test in all cases: two-hybrid library CCNG1;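 also: natural log of median RNA to DNA barcode read ratio; higher means stronger binding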
[1] = target: T1, 4H1449-bA
T1 chain: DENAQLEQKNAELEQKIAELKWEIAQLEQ

[2] = target: T2, 4H1544-bA
T2 chain: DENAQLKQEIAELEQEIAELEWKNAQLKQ

[3] = target: T3, 4H1629-bA
T3 chain: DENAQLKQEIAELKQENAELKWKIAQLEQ

[4] = target: T4, 4H1710-bA
T4 chain: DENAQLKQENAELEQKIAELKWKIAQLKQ

[5] = target: T5, 4H1804-bA
T5 chain: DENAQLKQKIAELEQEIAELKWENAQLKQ

[6] = target: T6, 4H1899-bA
T6 chain: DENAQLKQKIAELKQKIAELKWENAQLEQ

[7] = target: T7, 4H1985-bA
T7 chain: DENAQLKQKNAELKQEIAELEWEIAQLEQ

[8] = target: T8, 4H3129-bA
T8 chain: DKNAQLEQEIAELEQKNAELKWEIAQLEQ

[9] = target: T9, 4H3172-bA
T9 chain: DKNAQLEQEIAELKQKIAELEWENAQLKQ

[10] = target: T10, 4H3414-bA
T10 chain: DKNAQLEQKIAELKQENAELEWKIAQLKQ

[11] = target: T11, 4H3613-bA
T11 chain: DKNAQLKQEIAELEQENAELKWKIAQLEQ

[12] = target: T12, 4H3628-bA
T12 chain: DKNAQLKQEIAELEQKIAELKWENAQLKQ

[13] = target: T13, 4H3631-bA
T13 chain: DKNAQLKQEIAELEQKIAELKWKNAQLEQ

[14] = target: T14, 4H3638-bA
T14 chain: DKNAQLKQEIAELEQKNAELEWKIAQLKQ

[15] = target: T15, 4H3817-bA
T15 chain: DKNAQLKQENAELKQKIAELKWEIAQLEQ

[16] = target: T16, 4H3858-bA
T16 chain: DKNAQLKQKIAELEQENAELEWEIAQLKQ

[17] = target: T17, 4H3974-bA
T17 chain: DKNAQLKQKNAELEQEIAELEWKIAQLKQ

[18] = target: T18, 4H570-bA
T18 chain: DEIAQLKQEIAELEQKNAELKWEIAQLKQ

[19] = target: T19, 4H584-bA
T19 chain: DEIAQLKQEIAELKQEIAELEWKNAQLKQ

[20] = target: T20, 4H619-bA
T20 chain: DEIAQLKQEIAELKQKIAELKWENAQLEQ

[21] = target: T21, 4H850-bA
T21 chain: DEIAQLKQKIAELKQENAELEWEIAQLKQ

[22] = target: T22, 4H906-bA
T22 chain: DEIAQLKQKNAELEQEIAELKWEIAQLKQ

[23] = target: T23, 4H2442-bN
T23 chain: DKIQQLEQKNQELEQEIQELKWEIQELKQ

[24] = target: T24, 4H2576-bN
T24 chain: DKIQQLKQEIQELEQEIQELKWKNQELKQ

[25] = target: T25, 4H2618-bN
T25 chain: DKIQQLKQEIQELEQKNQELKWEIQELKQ

[26] = target: T26, 4H2667-bN
T26 chain: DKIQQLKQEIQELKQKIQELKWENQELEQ

[27] = target: T27, 4H2692-bA
T27 chain: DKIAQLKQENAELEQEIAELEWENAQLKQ

[28] = target: T28, 4H2729-bN
T28 chain: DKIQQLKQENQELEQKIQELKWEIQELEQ

[29] = target: T29, 4H2931-bA
T29 chain: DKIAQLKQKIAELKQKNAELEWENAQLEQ

[30] = target: T30, 4H3112-bN
T30 chain: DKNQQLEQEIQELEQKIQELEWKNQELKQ

[31] = target: T31, 4H3185-bN
T31 chain: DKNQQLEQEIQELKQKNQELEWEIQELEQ

[32] = target: T32, 4H331-bN
T32 chain: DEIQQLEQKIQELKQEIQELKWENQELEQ

[33] = target: T33, 4H3354-bN
T33 chain: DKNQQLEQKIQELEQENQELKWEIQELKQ

[34] = target: T34, 4H338-bN
T34 chain: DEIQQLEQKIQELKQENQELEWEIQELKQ

[35] = target: T35, 4H3427-bN
T35 chain: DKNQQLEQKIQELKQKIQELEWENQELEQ

[36] = target: T36, 4H3782-bN
T36 chain: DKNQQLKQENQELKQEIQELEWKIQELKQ

[37] = target: T37, 4H3855-bN
T37 chain: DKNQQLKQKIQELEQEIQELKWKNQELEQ

[38] = target: T38, 4H4001-bN
T38 chain: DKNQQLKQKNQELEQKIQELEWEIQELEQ

[39] = target: T39, 4H454-bN
T39 chain: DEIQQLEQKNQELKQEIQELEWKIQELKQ

[40] = target: T40, 4H568-bN
T40 chain: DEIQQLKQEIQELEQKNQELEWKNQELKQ

[41] = target: T41, 4H607-bN
T41 chain: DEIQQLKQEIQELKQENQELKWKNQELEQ

[42] = target: T42, 4H687-bN
T42 chain: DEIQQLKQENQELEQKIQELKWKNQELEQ

[43] = target: T43, 4H717-bN
T43 chain: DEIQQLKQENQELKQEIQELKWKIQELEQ

[44] = target: T44, 4H72-bN
T44 chain: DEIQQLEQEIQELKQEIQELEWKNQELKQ

[45] = target: T45, 4H754-bN
T45 chain: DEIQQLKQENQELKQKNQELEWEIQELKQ

[46] = target: T46, 4H797-bN
T46 chain: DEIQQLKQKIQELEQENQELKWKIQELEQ

[47] = target: T47, 4H883-bN
T47 chain: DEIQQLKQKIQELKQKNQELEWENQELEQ

[48] = target: T48, 4H908-bN
T48 chain: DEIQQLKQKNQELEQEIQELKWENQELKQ

[49] = target: T49, 4H918-bN
T49 chain: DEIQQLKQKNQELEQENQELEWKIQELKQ

[50] = target: T50, 4H953-bN
T50 chain: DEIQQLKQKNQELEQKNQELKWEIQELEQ

[51] = target: T51, 4H967-bN
T51 chain: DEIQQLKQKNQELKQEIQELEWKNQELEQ

[52] = target: T52, 4H1845-bN
T52 chain: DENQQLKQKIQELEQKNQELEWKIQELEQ

[53] = target: T53, 4H2588-bN
T53 chain: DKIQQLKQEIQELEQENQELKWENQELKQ

[54] = target: T54, 4H2610-bN
T54 chain: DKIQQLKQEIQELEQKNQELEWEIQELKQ

[55] = target: T55, 4H2697-bN
T55 chain: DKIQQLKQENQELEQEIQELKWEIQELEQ

[56] = target: T56, 4H3189-bN
T56 chain: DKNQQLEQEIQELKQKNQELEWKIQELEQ

[57] = target: T57, 4H3606-bN
T57 chain: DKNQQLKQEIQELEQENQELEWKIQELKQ

[58] = target: T58, 4H370-bN
T58 chain: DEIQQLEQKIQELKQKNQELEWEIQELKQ

[59] = target: T59, 4H3843-bN
T59 chain: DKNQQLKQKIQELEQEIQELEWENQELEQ

[60] = target: T60, 4H462-bN
T60 chain: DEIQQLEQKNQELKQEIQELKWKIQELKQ

[61] = target: T61, 4H570-bN
T61 chain: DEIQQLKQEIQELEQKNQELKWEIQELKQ

[62] = target: T62, 4H619-bN
T62 chain: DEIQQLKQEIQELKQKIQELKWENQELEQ

Binder: DENAQLEQKNAELEQKIAELKWEIAQLEQ [4H1449-bA]
interaction score [1]: -0.613 | interaction score [2]: -0.535 | interaction score [3]: -1.11 | interaction score [4]: 0.786 | interaction score [5]: -0.732 | interaction score [6]: -0.25 | interaction score [7]: 0.787 | interaction score [8]: -0.874 | interaction score [9]: -1.06 | interaction score [10]: -1.03 | interaction score [11]: -0.891 | interaction score [12]: -0.201 | interaction score [13]: 0.473 | interaction score [14]: -1.83 | interaction score [15]: -0.857 | interaction score [16]: -0.848 | interaction score [17]: 2.19 | interaction score [18]: -1.93 | interaction score [19]: -1.3 | interaction score [20]: -1.52 | interaction score [21]: -0.723 | interaction score [22]: -0.904

Binder: DENAQLKQEIAELKQENAELKWKIAQLEQ [4H1629-bA]
interaction score [3]: 0.605 | interaction score [4]: -0.992 | interaction score [5]: -1.39 | interaction score [7]: -0.329 | interaction score [26]: -1.22 | interaction score [8]: 0.102 | interaction score [9]: -0.887 | interaction score [10]: 0.702 | interaction score [13]: -0.216 | interaction score [14]: -0.477 | interaction score [15]: -0.529 | interaction score [17]: -0.124 | interaction score [18]: -0.594 | interaction score [19]: -1.4 | interaction score [20]: -0.0748 | interaction score [21]: -1.14 | interaction score [22]: -0.968

Other lines, results leading:

interaction score [23]: -0.216 | interaction score [24]: -0.32 | interaction score [25]: 0.706 | interaction score [26]: 0.241 | interaction score [27]: -0.104 | interaction score [28]: 0.367 | interaction score [29]: 0.256 | interaction score [30]: -0.821 | interaction score [31]: -1.14 | interaction score [32]: 0.796 | interaction score [33]: -0.568 | interaction score [34]: -0.476 | interaction score [35]: -0.236 | interaction score [36]: 0.148 | interaction score [37]: -0.731 | interaction score [38]: 0.0198 | interaction score [39]: 0.883 | interaction score [40]: -0.89 | interaction score [41]: -1.3 | interaction score [42]: -0.717 | interaction score [43]: -1.28 | interaction score [44]: -0.588 | interaction score [45]: -0.65 | interaction score [46]: -0.491 | interaction score [47]: -0.738 | interaction score [48]: -0.788 | interaction score [49]: -0.127 | interaction score [50]: -0.933 | interaction score [51]: -0.892
Binder: DKIQQLEQKNQELEQEIQELKWEIQELKQ [4H2442-bN]

interaction score [52]: 0.0957 | interaction score [23]: -0.755 | interaction score [24]: -1.34 | interaction score [53]: -1.62 | interaction score [54]: -0.755 | interaction score [25]: -0.877 | interaction score [26]: 0.755 | interaction score [55]: -1.96 | interaction score [28]: -0.274 | interaction score [30]: -0.777 | interaction score [31]: -0.558 | interaction score [56]: -0.856 | interaction score [32]: -1.66 | interaction score [33]: -0.397 | interaction score [34]: -0.586 | interaction score [35]: -1.53 | interaction score [57]: -0.857 | interaction score [58]: -1.16 | interaction score [36]: -1.24 | interaction score [59]: -0.731 | interaction score [37]: -0.717 | interaction score [38]: -1 | interaction score [39]: -0.965 | interaction score [60]: -0.741 | interaction score [40]: -1.33 | interaction score [61]: -2.11 | interaction score [41]: -1.09 | interaction score [62]: -0.153 | interaction score [42]: -1.5 | interaction score [43]: -0.951 | interaction score [44]: -0.603 | interaction score [45]: -1.28 | interaction score [46]: -0.559 | interaction score [47]: -0.686 | interaction score [48]: -0.834 | interaction score [49]: -1.04 | interaction score [50]: -1.04 | interaction score [51]: -1.31
Binder: DENQQLKQKIQELEQKNQELEWKIQELEQ [4H1845-bN]
